Measured values reported in PMC3653351 (The Journal of Cell Biology, 2013).
Blank lines part the entries; values can stand above or below the molecule they belong to.

What was measured:
[1] = target: Myc-PK-SV40NLS (not stated | SV40); assay: SEC
Myc-PK-TprNLS = assay: SEC
GST-SV40NLS (SV40) = assay: ELISA
[2] = target: Recombinant KPNA2/Importin-β (UniProt P52292;Q14974); assay: ELISA
Recombinant KPNA2/Importin-β (UniProt P52292;Q14974), sequence (Q14974 whole entry, one chain of several): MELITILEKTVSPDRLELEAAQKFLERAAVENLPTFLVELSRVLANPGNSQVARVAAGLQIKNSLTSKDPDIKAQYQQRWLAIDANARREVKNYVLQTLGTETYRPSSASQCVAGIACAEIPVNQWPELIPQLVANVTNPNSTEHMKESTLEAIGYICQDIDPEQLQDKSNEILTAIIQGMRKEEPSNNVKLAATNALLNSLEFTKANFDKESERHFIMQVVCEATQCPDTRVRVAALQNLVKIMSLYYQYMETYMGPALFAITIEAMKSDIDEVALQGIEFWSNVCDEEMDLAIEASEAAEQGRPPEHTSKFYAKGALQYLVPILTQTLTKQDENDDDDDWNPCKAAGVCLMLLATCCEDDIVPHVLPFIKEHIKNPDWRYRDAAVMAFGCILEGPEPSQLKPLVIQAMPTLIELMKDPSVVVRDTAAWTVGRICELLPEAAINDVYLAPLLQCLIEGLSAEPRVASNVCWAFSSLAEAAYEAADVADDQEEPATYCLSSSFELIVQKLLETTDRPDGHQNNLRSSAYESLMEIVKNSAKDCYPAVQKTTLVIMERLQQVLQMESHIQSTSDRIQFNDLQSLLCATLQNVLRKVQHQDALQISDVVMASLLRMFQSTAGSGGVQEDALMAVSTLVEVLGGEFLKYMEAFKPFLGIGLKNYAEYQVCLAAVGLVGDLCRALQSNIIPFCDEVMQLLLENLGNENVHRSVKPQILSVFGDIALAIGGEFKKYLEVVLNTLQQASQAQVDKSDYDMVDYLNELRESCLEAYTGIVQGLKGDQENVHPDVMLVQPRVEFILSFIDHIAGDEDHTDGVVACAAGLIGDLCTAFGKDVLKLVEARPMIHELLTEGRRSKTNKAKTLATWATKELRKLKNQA

Molecule: Myc-PK-SV40NLS
stoichiometry N [1]: 4

Molecule: Recombinant KPNA2/Importin-β (from UniProt P52292;Q14974) (complex)
Kd (GST-SV40NLS (SV40)): 10.5 nM

The next lines start with the values.

stoichiometry N (Myc-PK-TprNLS): 4
Molecule: Myc-PK-TprNLS

Kd [2]: 3.2 nM
B1: GST-TprNLS (domain or fragment)
chain: STAVFGTVSATPSSSLPKRTREEEEDSTIEASDQVSDDTVEMPLPKKLKSVTPVGT
